22 variants from the supplement of paper PMC7125110 can be followed below.

The labels stand for the following.
B1: glmS ribozyme (parent)
chain: AUAAAAGCGCCAGAACUACAGAAAUGUAGUUGACGAGGAGGAGGUUUAUCGAAUUUUCGGCGGAUGCCUCCAAA

± gives the standard error. Fewer inactive variants are shown than the library holds. Where only a bound is given, the exact number is not on record here.

Holding throughout (settings): with glucosamine-6-phosphate
Series [1] covers variants of B1. In words: self-cleavage kobs at 40 uM GlcN6P; higher = faster cleavage; RNA array. The gist of the method: (§1)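 Barcoded ribozyme variants, transcribed in situ by E. coli RNA polymerase on sequenced MiSeq chips, were followed via a hybridised Cy3 probe at 37 °C. Glucosamine-6-phosphate ranged from 40 μM to 10 mM in HEPES/KCl/Mg(OAc)2 buffer. kobs came from decay fits to per-tile medians, and kcat and KM from weighted Michaelis–Menten fits.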

Series [2] covers variants of B1. The series can be described thus: self-cleavage kobs at 640 uM GlcN6P; higher = faster cleavage; RNA array. In outline:
as §1

Series [3] covers variants of B1. In words: self-cleavage kobs at 2500 uM GlcN6P; higher = faster cleavage; RNA array. The gist of the method:
as §1

The variants in series [4] derive from B1. In words: self-cleavage kobs at 10000 uM GlcN6P; higher = faster cleavage; RNA array. In outline:
as §1

Variants of B1 are the subject of series [5]. The series can be described thus: self-cleavage kobs at 160 uM GlcN6P; higher = faster cleavage; RNA array. In outline:
as §1

With C8U G59C, the “self-cleavage kobs at 40 uM GlcN6P” value in the series with glucosamine-6-phosphate [1] was under 1e-05 s⁻¹. Further, in the series with glucosamine-6-phosphate [2], the “self-cleavage kobs at 640 uM GlcN6P” value is under 1e-05 s⁻¹. In addition, the “self-cleavage kobs at 2500 uM GlcN6P” value with glucosamine-6-phosphate [3] is under 1e-05 s⁻¹. The “self-cleavage kobs at 10000 uM GlcN6P” value with glucosamine-6-phosphate [4] is under 1e-05 s⁻¹.
Turning to G37A G44U U65G, the “self-cleavage kobs at 40 uM GlcN6P” value in the series with glucosamine-6-phosphate [1] is under 1e-05 s⁻¹. Besides, the “self-cleavage kobs at 160 uM GlcN6P” value with glucosamine-6-phosphate [5] was under 1e-05 s⁻¹. Moreover, the “self-cleavage kobs at 640 uM GlcN6P” value with glucosamine-6-phosphate [2] is under 1e-05 s⁻¹. Also, in the series with glucosamine-6-phosphate [4], the “self-cleavage kobs at 10000 uM GlcN6P” value is under 1e-05 s⁻¹.
A6G G40C U47G U49G C58G C68A: the “self-cleavage kobs at 40 uM GlcN6P” value with glucosamine-6-phosphate [1] is under 1e-05 s⁻¹. In the series with glucosamine-6-phosphate [4], the “self-cleavage kobs at 10000 uM GlcN6P” value is under 1e-05 s⁻¹.
With C34G A53C, the “self-cleavage kobs at 40 uM GlcN6P” value in the series with glucosamine-6-phosphate [1] is under 1e-05 s⁻¹. The “self-cleavage kobs at 160 uM GlcN6P” value with glucosamine-6-phosphate [5] was under 1e-05 s⁻¹. Moreover, in the series with glucosamine-6-phosphate [2], the “self-cleavage kobs at 640 uM GlcN6P” value is under 1e-05 s⁻¹. For the same variant, in the series with glucosamine-6-phosphate [3], the “self-cleavage kobs at 2500 uM GlcN6P” value was under 1e-05 s⁻¹. In the series with glucosamine-6-phosphate [4], the “self-cleavage kobs at 10000 uM GlcN6P” value was under 1e-05 s⁻¹.
Regarding U31A C50U, the “self-cleavage kobs at 40 uM GlcN6P” value with glucosamine-6-phosphate [1] is under 1e-05 s⁻¹. Besides, the “self-cleavage kobs at 160 uM GlcN6P” value in the series with glucosamine-6-phosphate [5] is under 1e-05 s⁻¹.
A6C A15G U45G: the “self-cleavage kobs at 40 uM GlcN6P” value with glucosamine-6-phosphate [1] was under 1e-05 s⁻¹. Further, the “self-cleavage kobs at 160 uM GlcN6P” value with glucosamine-6-phosphate [5] is under 1e-05 s⁻¹.
As for G43A U47G U54A, the “self-cleavage kobs at 40 uM GlcN6P” value with glucosamine-6-phosphate [1] is under 1e-05 s⁻¹.
For U45C U54G, in the series with glucosamine-6-phosphate [1], the “self-cleavage kobs at 40 uM GlcN6P” value was 3.96e-05 ± 1.3e-05 s⁻¹. In the series with glucosamine-6-phosphate [5], the “self-cleavage kobs at 160 uM GlcN6P” value is 0.000199 ± 3.9e-05 s⁻¹. Besides, the “self-cleavage kobs at 640 uM GlcN6P” value with glucosamine-6-phosphate [2] was found to be 0.00067 ± 0.00015 s⁻¹. Moreover, the “self-cleavage kobs at 2500 uM GlcN6P” value with glucosamine-6-phosphate [3] worked out at 0.000454 ± 0.00018 s⁻¹. Further, the “self-cleavage kobs at 10000 uM GlcN6P” value with glucosamine-6-phosphate [4] turned out to be 0.00305 ± 0.00064 s⁻¹.
A14G U69C: in the series with glucosamine-6-phosphate [1], the “self-cleavage kobs at 40 uM GlcN6P” value stood at 0.00132 ± 0.00036 s⁻¹. Besides, in the series with glucosamine-6-phosphate [4], the “self-cleavage kobs at 10000 uM GlcN6P” value came out at 0.00782 ± 0.0029 s⁻¹.
G9A U57G: the “self-cleavage kobs at 40 uM GlcN6P” value with glucosamine-6-phosphate [1] was under 1e-05 s⁻¹. In addition, in the series with glucosamine-6-phosphate [5], the “self-cleavage kobs at 160 uM GlcN6P” value is under 1e-05 s⁻¹. Besides, the “self-cleavage kobs at 640 uM GlcN6P” value with glucosamine-6-phosphate [2] was under 1e-05 s⁻¹. Besides, the “self-cleavage kobs at 2500 uM GlcN6P” value with glucosamine-6-phosphate [3] was under 1e-05 s⁻¹.
For G44A U46C A53U C61U, the “self-cleavage kobs at 40 uM GlcN6P” value with glucosamine-6-phosphate [1] is under 1e-05 s⁻¹.
On to G60U U69C, for which the “self-cleavage kobs at 40 uM GlcN6P” value with glucosamine-6-phosphate [1] was under 1e-05 s⁻¹. The “self-cleavage kobs at 160 uM GlcN6P” value with glucosamine-6-phosphate [5] was under 1e-05 s⁻¹. The “self-cleavage kobs at 640 uM GlcN6P” value in the series with glucosamine-6-phosphate [2] is under 1e-05 s⁻¹. For the same variant, in the series with glucosamine-6-phosphate [4], the “self-cleavage kobs at 10000 uM GlcN6P” value is under 1e-05 s⁻¹.
On to C11A U31A A39G U55C G66U, for which the “self-cleavage kobs at 40 uM GlcN6P” value with glucosamine-6-phosphate [1] was under 1e-05 s⁻¹. The “self-cleavage kobs at 160 uM GlcN6P” value in the series with glucosamine-6-phosphate [5] was under 1e-05 s⁻¹. The “self-cleavage kobs at 10000 uM GlcN6P” value with glucosamine-6-phosphate [4] was under 1e-05 s⁻¹.
For A6G C16G G66C, the “self-cleavage kobs at 40 uM GlcN6P” value with glucosamine-6-phosphate [1] is under 1e-05 s⁻¹.
On to G51C A64G C68A, for which the “self-cleavage kobs at 40 uM GlcN6P” value in the series with glucosamine-6-phosphate [1] is under 1e-05 s⁻¹. For the same variant, the “self-cleavage kobs at 10000 uM GlcN6P” value with glucosamine-6-phosphate [4] was under 1e-05 s⁻¹.
A6U A12G A42C A52U A64G C68G: the “self-cleavage kobs at 40 uM GlcN6P” value in the series with glucosamine-6-phosphate [1] is under 1e-05 s⁻¹. Moreover, in the series with glucosamine-6-phosphate [3], the “self-cleavage kobs at 2500 uM GlcN6P” value was under 1e-05 s⁻¹. In the series with glucosamine-6-phosphate [4], the “self-cleavage kobs at 10000 uM GlcN6P” value was under 1e-05 s⁻¹.
For C19A G29U C58A C67G, in the series with glucosamine-6-phosphate [1], the “self-cleavage kobs at 40 uM GlcN6P” value amounted to 3.09e-05 ± 1.3e-05 s⁻¹. Besides, in the series with glucosamine-6-phosphate [4], the “self-cleavage kobs at 10000 uM GlcN6P” value came to 6.68e-05 ± 1.4e-05 s⁻¹.
Take U56C C58U G60U: the “self-cleavage kobs at 40 uM GlcN6P” value with glucosamine-6-phosphate [1] is under 1e-05 s⁻¹. In addition, the “self-cleavage kobs at 160 uM GlcN6P” value in the series with glucosamine-6-phosphate [5] was under 1e-05 s⁻¹. Besides, the “self-cleavage kobs at 2500 uM GlcN6P” value with glucosamine-6-phosphate [3] was under 1e-05 s⁻¹.
In the case of U55G C67U, the “self-cleavage kobs at 40 uM GlcN6P” value in the series with glucosamine-6-phosphate [1] was determined as 0.000342 ± 3.5e-05 s⁻¹. Also, the “self-cleavage kobs at 160 uM GlcN6P” value with glucosamine-6-phosphate [5] is 0.000573 ± 9.2e-05 s⁻¹. The “self-cleavage kobs at 640 uM GlcN6P” value in the series with glucosamine-6-phosphate [2] turned out to be 0.000864 ± 0.00017 s⁻¹. The “self-cleavage kobs at 2500 uM GlcN6P” value with glucosamine-6-phosphate [3] came to 0.00136 ± 0.00026 s⁻¹. In addition, the “self-cleavage kobs at 10000 uM GlcN6P” value in the series with glucosamine-6-phosphate [4] was found to be 0.0121 ± 0.0017 s⁻¹.
In the case of G35A U65C, the “self-cleavage kobs at 40 uM GlcN6P” value in the series with glucosamine-6-phosphate [1] is under 1e-05 s⁻¹. For the same variant, the “self-cleavage kobs at 160 uM GlcN6P” value with glucosamine-6-phosphate [5] is under 1e-05 s⁻¹. Besides, the “self-cleavage kobs at 640 uM GlcN6P” value with glucosamine-6-phosphate [2] was under 1e-05 s⁻¹. In the series with glucosamine-6-phosphate [3], the “self-cleavage kobs at 2500 uM GlcN6P” value was under 1e-05 s⁻¹. The “self-cleavage kobs at 10000 uM GlcN6P” value with glucosamine-6-phosphate [4] is under 1e-05 s⁻¹.
On to A6G A64C, for which the “self-cleavage kobs at 40 uM GlcN6P” value with glucosamine-6-phosphate [1] was under 1e-05 s⁻¹. Further, the “self-cleavage kobs at 160 uM GlcN6P” value with glucosamine-6-phosphate [5] is under 1e-05 s⁻¹. Further, in the series with glucosamine-6-phosphate [2], the “self-cleavage kobs at 640 uM GlcN6P” value is under 1e-05 s⁻¹. In addition, in the series with glucosamine-6-phosphate [4], the “self-cleavage kobs at 10000 uM GlcN6P” value is under 1e-05 s⁻¹.
Consider G7A U57G C61A, for which the “self-cleavage kobs at 40 uM GlcN6P” value with glucosamine-6-phosphate [1] is under 1e-05 s⁻¹.
